Patent US20150086555A1

Tests used:
Settings in all cases: remark: other sources report otherwise
[1] = target: recombinant soluble homotrimeric HA of A/Hong Kong/1073/99 (H9N2) (Influenza A virus A/Hong Kong/1073/99 (H9N2)); test: trimeric HA microarray, transfection supernatant set 2
[2] = target: recombinant soluble homotrimeric HA of A/northern shoveler/California/HKWF115/07 (H6) (Influenza A virus A/northern shoveler/California/HKWF115/2007(H6N1)); test: as above
[3] = target: recombinant soluble homotrimeric HA of A/Anhui/1/05 (H5N1) (Influenza A virus A/Anhui/1/2005(H5N1)); test: trimeric HA microarray, transfection supernatant set 3
[4] = target: recombinant soluble homotrimeric HA of A/Solomon Islands/3/06 (H1N1) (Influenza A virus A/Solomon Islands/3/2006(H1N1)); test: as above
[5] = target: recombinant soluble homotrimeric HA of A/Netherlands/219/03 (H7N7) (Influenza A virus A/Netherlands/219/03(H7N7)); test: as above
[6] = target: recombinant soluble homotrimeric HA of A/Vietnam/1203/04 (H5N1) (Influenza A virus A/VietNam/1203/2004(H5N1)); test: as above
[7] = target: recombinant soluble homotrimeric HA of A/Japan/305/57 (H2N2) (Influenza A virus A/Japan/305/1957(H2N2)); test: as above
[8] = target: recombinant soluble homotrimeric HA of A/California/4/09 (H1N1) (Influenza A virus A/California/04/2009(H1N1)); test: as above
[9] = target: recombinant soluble homotrimeric HA of A/South Carolina/1/18 (H1N1) (Influenza A virus A/South Carolina/1/18 (H1N1)); test: as above
[10] = target: recombinant soluble homotrimeric HA of A/duck/Yangzhou/02/05 (H8N4) (Influenza A virus A/duck/Yangzhou/02/2005(H8N4)); test: trimeric HA microarray, transfection supernatant set 2
[11] = target: recombinant soluble homotrimeric HA of A/Wisconsin/67/05 (H3N2) (Influenza A virus A/Wisconsin/67/2005(H3N2)); test: as above
[12] = target: recombinant soluble homotrimeric HA of A/swine/Ontario/01911-2/99 (H4N6) (Influenza A virus A/Swine/Ontario/01911-2/99 (H4N6)); test: as above

B1: TCN-523 (5248_A17) (antibody, V domains shown)
VH: QVQLVQSGAEVKKPGSSVKVSCKASGGSFSNYAFSWVRQAPGQGLEWMGGTIPLLGTTNYAQKFQGRVTISADQFTSTAYMELGSLRSEDTAVYYCTRRKMTTAFDSWGQGTLVTVSS
VL: QPVLTQPPSASASLGASVTLTCTLSSAYSNYKVDWYQQRPGKGPRFVMRVGTGGIVGSKGDGIPDRFSVLGSGLNRYLTIKNIQEEDESDYHCGADHGSGSNFVSPYVFGGGTKLTVL
- Trimeric HA Binding: RLU [1]: 31300 RLU
- Trimeric HA Binding: RLU [2]: 21200 RLU
- Trimeric HA Binding: RLU [3]: 546 RLU
- Trimeric HA Binding: RLU [4]: 11000 RLU
- Trimeric HA Binding: RLU [5]: 3140 RLU
- Trimeric HA Binding: RLU [6]: 22100 RLU
- Trimeric HA Binding: RLU [7]: 4550 RLU
- Trimeric HA Binding: RLU [8]: 19400 RLU
- Trimeric HA Binding: RLU [9]: 23700 RLU

B2: TCN-530 (5248_H10a) (antibody, V domains shown)
VH: QVQLVQSGAEVRKPGSSVKVSCKASGGPFMSYAIGWVRQAPGQGLEWMGGINPVFGRPHYAQKFQGRVTIATDDSTKTSYMELSSLTSEDTGMYYCASRYSRSSPGTFESWGQGTLVTVSS
VL: EIVMTQFPATLSVSPGERVTLSCRASQSVSNNLAWYQQKPGQPPRLLIYDASTRATGVPAKFSGTGSGTEFTLSISSLQSEDFAVYYCQQYHNWPPSYSFGLGTKLEIK
- Trimeric HA Binding: RLU [3]: 97 RLU
- Trimeric HA Binding: RLU [4]: 13800 RLU
- Trimeric HA Binding: RLU [5]: 118 RLU
- Trimeric HA Binding: RLU [6]: 25200 RLU
- Trimeric HA Binding: RLU [7]: 5170 RLU
- Trimeric HA Binding: RLU [8]: 21200 RLU
- Trimeric HA Binding: RLU [9]: 17200 RLU

B3: TCN-504 (3251_K17) (antibody, V domains shown)
VH: QVQLQESGPGLVKPSETLSLTCAVSGVSISNIDFYWGWIRQPPGKGLEWIGNIYYTGITFYNPSLSSRVAISIDTSKNQFSLTLTSVTAADTAMYYCARHYGDSEAINDAFDIWGQGTMLTVSS
VL: EIVMTQSPATLSVSPGERATLSCRASQSVGNSLAWYQQRPGQAPRLLIYGASTRATGIPPRFSGSGSGTEFTLTISSLQTEDFAVYYCQQYINWRPLSFGGGTKVEIK
- Trimeric HA Binding: RLU [10]: 17800 RLU
- Trimeric HA Binding: RLU [11]: 21600 RLU
- Trimeric HA Binding: RLU [12]: 32500 RLU
- Trimeric HA Binding: RLU [3]: 30000 RLU
- Trimeric HA Binding: RLU [4]: 32700 RLU
- Trimeric HA Binding: RLU [5]: 19600 RLU
- Trimeric HA Binding: RLU [6]: 13300 RLU
- Trimeric HA Binding: RLU [7]: 36000 RLU
- Trimeric HA Binding: RLU [8]: 18600 RLU
- Trimeric HA Binding: RLU [9]: 27600 RLU
